Results from patent US20260008815A1, “CYCLIC PEPTIDE OR SALT THEREOF, AND USES THEREOF” (FUJIFILM Corporation, priority 2023, published 2026).
Bridge positions count the residues as written; N and C are the ends. Ends that are not written are not given here. COCH2 = acetyl group that carries the bridge

The binders below were run against T1, Recombinant Human FGFR2 alpha (IIIc) Fc Chimera Protein, CF (R&D systems, 712-FR-050) (human, UniProt P21802 22-377) (assay: ELISA on plate-bound FGFR2-Fc).
T1 construct: bought; not shown: Fc part of the chimera
T1 sequence (P21802 22-377, change not shown): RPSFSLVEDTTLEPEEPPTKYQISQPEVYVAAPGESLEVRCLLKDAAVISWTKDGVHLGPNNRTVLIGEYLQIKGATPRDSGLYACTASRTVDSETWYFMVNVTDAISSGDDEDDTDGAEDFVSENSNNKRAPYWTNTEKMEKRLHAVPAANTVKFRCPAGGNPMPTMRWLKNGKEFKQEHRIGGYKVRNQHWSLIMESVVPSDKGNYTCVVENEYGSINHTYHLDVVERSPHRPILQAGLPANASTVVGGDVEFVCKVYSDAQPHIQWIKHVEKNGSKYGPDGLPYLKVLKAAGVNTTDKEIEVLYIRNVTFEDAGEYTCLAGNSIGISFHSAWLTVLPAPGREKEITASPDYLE
Summary of the method: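 Peptide binding scored by category from dose-response of background-corrected luminescence (FGFR-coated minus uncoated wells). Detection via anti-Myc antibody (2 h, room temperature) after 3 h peptide incubation on wells coated with 5 ng FGFR2 alpha (IIIc)-Fc.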

ELISA luminescence signal at 10 nmol/L peptide, relative to SEQ ID NO: 47 (=1) [ratio]	Binder
0.5 to 0.7	ACEYNYWNQVQFTFLIAFK(COCH2)R (thioether 2-19 (inferred)) [cyclic peptide SEQ ID NO: 44]
≥ 0.7	YCEENYLDPEQYQYFIMFK(COCH2)Y (thioether 2-19) [cyclic peptide SEQ ID NO: 359]
≥ 0.7	YCEENYLDPEQHQYFIYFK(COCH2)H (thioether 2-19) [cyclic peptide SEQ ID NO: 397]
0.1 to 0.5	YCHENYLDPEQHQYFHYFK(COCH2)Y (thioether 2-19) [cyclic peptide SEQ ID NO: 393]
≥ 0.7	YCHENYLDPEQYQYFHYFK(COCH2)Y (thioether 2-19) [cyclic peptide SEQ ID NO: 392]
≥ 0.7	YCHENYLDPEQYQYFHYFK(COCH2)H (thioether 2-19) [cyclic peptide SEQ ID NO: 395]
0.1 to 0.5	YCEENYLDPEQYQYFHYFK(COCH2)R (thioether 2-19) [cyclic peptide SEQ ID NO: 390]
≥ 0.7	YCEENYLDPEQYQYFIYFK(COCH2)M (thioether 2-19) [cyclic peptide SEQ ID NO: 360]
≥ 0.7	YCEENYLDPEQYQYFHYFK(COCH2)H (thioether 2-19) [cyclic peptide SEQ ID NO: 391]
0.5 to 0.7	YCHENYLDPEQYQYFHYFK(COCH2)R (thioether 2-19) [cyclic peptide SEQ ID NO: 394]
0.5 to 0.7	YCEENYLDPEQHQYFIYFK(COCH2)R (thioether 2-19) [cyclic peptide SEQ ID NO: 396]
0.5 to 0.7	YCHENYLDPEQHQYFIYFK(COCH2)R (thioether 2-19) [cyclic peptide SEQ ID NO: 398]
0.5 to 0.7	SCIQQNYFWQYVFERYRYK(COCH2)Q (thioether 2-19 (inferred)) [cyclic peptide SEQ ID NO: 46]
≥ 0.7	TCPQNFRDELQFTYFTQYK(COCH2)Y (thioether 2-19 (inferred)) [cyclic peptide SEQ ID NO: 45]
≥ 0.7	QCPQNFINPVQWRYFQHYK(COCH2)N (thioether 2-19 (inferred)) [cyclic peptide SEQ ID NO: 80]
≥ 0.7	PCPQNFINPVQWRYFQHYK(COCH2)N (thioether 2-19 (inferred)) [cyclic peptide SEQ ID NO: 72]
≥ 0.7	ACPQNFINPVQWRYFQHYK(COCH2)N (thioether 2-19 (inferred)) [cyclic peptide SEQ ID NO: 53]
≥ 0.7	KCPQNFINPVQWRYFQHYKN (thioether ring (C)-(K(acetyl))) [cyclic peptide SEQ ID NO: 47]
≥ 0.7	KCPANFINPVQWRYFQHYKN (thioether ring (C)-(K(acetyl))) [cyclic peptide SEQ ID NO: 55]

ELISA luminescence signal at 10 nmol/L peptide, relative to SEQ ID NO: 47 (=1) [ratio]	Binder
≥ 0.7	KCPQNFINPAQWRYFQHYKN (not fully specified; thioether ring (C)-(K(acetyl))) [cyclic peptide SEQ ID NO: 61]
0.1 to 0.5	KCPQAFINPVQWRYFQHYKN (thioether ring (C)-(K(acetyl))) [cyclic peptide SEQ ID NO: 56]
≥ 0.7	KCPQNFINPVQWRYFQHYKA (not fully specified; thioether ring (C)-(K(acetyl))) [cyclic peptide SEQ ID NO: 67]
0.5 to 0.7	KCPQNFINPVQWRAFQHYKN (not fully specified; thioether ring (C)-(K(acetyl))) [cyclic peptide SEQ ID NO: 64]
≥ 0.7	KCAQNFINPVQWRYFQHYKN (thioether ring (C)-(K(acetyl))) [cyclic peptide SEQ ID NO: 54]
≥ 0.7	KCPQNFINAVQWRYFQHYKN (not fully specified; thioether ring (C)-(K(acetyl))) [cyclic peptide SEQ ID NO: 60]
≥ 0.7	GCPQNFINPVQWRYFQHYK(COCH2)N (thioether 2-19 (inferred)) [cyclic peptide SEQ ID NO: 71]
≥ 0.7	ICPQNFINPVQWRYFQHYK(COCH2)N (thioether 2-19 (inferred)) [cyclic peptide SEQ ID NO: 74]
≥ 0.7	VCPQNFINPVQWRYFQHYK(COCH2)N (thioether 2-19 (inferred)) [cyclic peptide SEQ ID NO: 75]
≥ 0.7	LCPQNFINPVQWRYFQHYK(COCH2)N (thioether 2-19 (inferred)) [cyclic peptide SEQ ID NO: 73]
≥ 0.7	KCPQNFINPVQWAYFQHYKN (not fully specified; thioether ring (C)-(K(acetyl))) [cyclic peptide SEQ ID NO: 63]
0.5 to 0.7	KCPQNFIAPVQWRYFQHYKN (not fully specified; thioether ring (C)-(K(acetyl))) [cyclic peptide SEQ ID NO: 59]
0.5 to 0.7	KCPQNFANPVQWRYFQHYKN (thioether ring (C)-(K(acetyl))) [cyclic peptide SEQ ID NO: 58]
0.1 to 0.5	KCPQNFINPVQARYFQHYKN (not fully specified; thioether ring (C)-(K(acetyl))) [cyclic peptide SEQ ID NO: 62]
≥ 0.7	FCPQNFINPVQWRYFQHYK(COCH2)N (thioether 2-19 (inferred)) [cyclic peptide SEQ ID NO: 76]
0.5 to 0.7	KCPQNAINPVQWRYFQHYKN (thioether ring (C)-(K(acetyl))) [cyclic peptide SEQ ID NO: 57]
≥ 0.7	KCPQNFINPVQWRYFQAYKN (not fully specified; thioether ring (C)-(K(acetyl))) [cyclic peptide SEQ ID NO: 66]
≥ 0.7	KCPQNFINPVQWRYFAHYKN (not fully specified; thioether ring (C)-(K(acetyl))) [cyclic peptide SEQ ID NO: 65]
